Measurements published in PMC4835091, “Characterization of the FtsZ C-Terminal Variable (CTV) Region in Z-Ring Assembly and Interaction with the Z-Ring Stabilizer ZapD in E. coli Cytokinesis” (PLoS ONE, 2016).
Where a chain is given by its changes, count along the chain named. In names and notes the source's numbering stands.

T1: GAL4 BD-ZapD fusion (E. coli, UniProt P36680 1-247)
T1 construct: ZapD, Z-ring stabilizer of E. coli; also called pDEST-GBKT7-zapD; source: yeast two-hybrid fusion (pDEST-GBKT7-zapD in S. cerevisiae PJ69-4A, diploid after mating)
T1 sequence (looked up): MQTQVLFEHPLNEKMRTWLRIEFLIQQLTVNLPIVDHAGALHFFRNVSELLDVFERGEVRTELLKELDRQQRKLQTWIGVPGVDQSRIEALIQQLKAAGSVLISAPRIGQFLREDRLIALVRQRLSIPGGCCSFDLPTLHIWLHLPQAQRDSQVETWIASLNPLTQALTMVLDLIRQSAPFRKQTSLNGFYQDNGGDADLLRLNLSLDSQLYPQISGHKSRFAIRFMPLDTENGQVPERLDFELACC

B1: GAL4 AD-FtsZ(DQAK) fusion (natural protein, E. coli, UniProt P0A9A6 1-383, looked up)
chain: MFEPMELTNDAVIKVIGVGGGGGNAVEHMVRERIEGVEFFAVNTDAQALRKTAVGQTIQIGSGITKGLGAGANPEVGRNAADEDRDALRAALEGADMVFIAAGMGGGTGTGAAPVVAEVAKDLGILTVAVVTKPFNFEGKKRMAFAEQGITELSKHVDSLITIPNDKLLKVLGRGISLLDAFGAANDVLKGAVQGIAELITRPGLMNVDFADVRTVMSEMGYAMMGSGVASGEDRAEEAAEMAISSPLLEDIDLSGARGVLVNITAGFDLRLDEFETVGNTIRAFASDNATVVIGTSLDPDMNDELRVTVVATGIGMDKRPEITLVTNKQVQQPVMDRYQQHGMAPLTQEQKPVAKVVNDNAPQTAKEPDYLDIPAFLRDQAK
notes: FtsZ of E. coli with the native CTV KQAD replaced by DQAK (net-neutral); source: yeast two-hybrid fusion (pDEST-GADT7-ftsZ(DQAK) in S. cerevisiae SL3004, diploid after mating)
B2: GAL4 AD-FtsZ(QQQQ) fusion (natural protein, E. coli, UniProt P0A9A6 1-383, looked up)
chain: B1 chain with D380Q, A382Q, K383Q
notes: FtsZ of E. coli with the native CTV KQAD replaced by QQQQ (net-neutral); source: yeast two-hybrid fusion (pDEST-GADT7-ftsZ(QQQQ) in S. cerevisiae SL3004, diploid after mating)
B3: GAL4 AD-FtsZ(RQAR) fusion (natural protein, E. coli, UniProt P0A9A6 1-383, looked up)
chain: B1 chain with D380R, K383R
notes: FtsZ of E. coli with the native CTV KQAD replaced by RQAR (net-positive); source: yeast two-hybrid fusion (pDEST-GADT7-ftsZ(RQAR) in S. cerevisiae SL3004, diploid after mating)
B4: GAL4 AD-FtsZ(NRNKRG) fusion (natural protein, E. coli | B. subtilis)
chain: MFEPMELTNDAVIKVIGVGGGGGNAVEHMVRERIEGVEFFAVNTDAQALRKTAVGQTIQIGSGITKGLGAGANPEVGRNAADEDRDALRAALEGADMVFIAAGMGGGTGTGAAPVVAEVAKDLGILTVAVVTKPFNFEGKKRMAFAEQGITELSKHVDSLITIPNDKLLKVLGRGISLLDAFGAANDVLKGAVQGIAELITRPGLMNVDFADVRTVMSEMGYAMMGSGVASGEDRAEEAAEMAISSPLLEDIDLSGARGVLVNITAGFDLRLDEFETVGNTIRAFASDNATVVIGTSLDPDMNDELRVTVVATGIGMDKRPEITLVTNKQVQQPVMDRYQQHGMAPLTQEQKPVAKVVNDNAPQTAKEPDYLDIPAFLRNRNKRG
notes: FtsZ of E. coli up to the CTV; the native CTV KQAD (380-383) is replaced by the next part; also called E. coli FtsZ with the B. subtilis CTV; source: yeast two-hybrid fusion (pDEST-GADT7-ftsZ(NRNKRG) in S. cerevisiae SL3004, diploid after mating)
B5: FtsZ(1-379) (purified) (domain or fragment, E. coli, UniProt P0A9A6 1-379, looked up)
chain: MFEPMELTNDAVIKVIGVGGGGGNAVEHMVRERIEGVEFFAVNTDAQALRKTAVGQTIQIGSGITKGLGAGANPEVGRNAADEDRDALRAALEGADMVFIAAGMGGGTGTGAAPVVAEVAKDLGILTVAVVTKPFNFEGKKRMAFAEQGITELSKHVDSLITIPNDKLLKVLGRGISLLDAFGAANDVLKGAVQGIAELITRPGLMNVDFADVRTVMSEMGYAMMGSGVASGEDRAEEAAEMAISSPLLEDIDLSGARGVLVNITAGFDLRLDEFETVGNTIRAFASDNATVVIGTSLDPDMNDELRVTVVATGIGMDKRPEITLVTNKQVQQPVMDRYQQHGMAPLTQEQKPVAKVVNDNAPQTAKEPDYLDIPAFLR
notes: also called FtsZ lacking the CTV residues; FtsZ without the CTV region; source: E. coli C41(DE3), purified (25% saturated ammonium sulfate cut)
B6: FtsZ(DQAK) (purified) (natural protein, E. coli, UniProt P0A9A6 1-383, looked up)
chain: B1 chain
notes: FtsZ of E. coli with the native CTV KQAD replaced by DQAK (net-neutral); pKHH9, pET-21b(+); also called net-neutral CTV mutant; source: E. coli C41(DE3), purified (25% saturated ammonium sulfate cut)
B7: FtsZ(QQQQ) (purified) (natural protein, E. coli, UniProt P0A9A6 1-383, looked up)
chain: B1 chain with D380Q, A382Q, K383Q
notes: FtsZ of E. coli with the native CTV KQAD replaced by QQQQ (net-neutral); pLT1, pET-21b(+); also called net-neutral CTV mutant; source: E. coli C41(DE3), purified (25% saturated ammonium sulfate cut)
B8: FtsZ(KQAK) (purified) (natural protein, E. coli, UniProt P0A9A6 1-383, looked up)
chain: B1 chain with D380K
notes: FtsZ of E. coli with the native CTV KQAD replaced by KQAK (net-positive); pKHH8, pET-21b(+); also called net-positive CTV mutant; source: E. coli C41(DE3), purified (25% saturated ammonium sulfate cut)
B9: FtsZ(RQAR) (purified) (natural protein, E. coli, UniProt P0A9A6 1-383, looked up)
chain: B1 chain with D380R, K383R
notes: FtsZ of E. coli with the native CTV KQAD replaced by RQAR (net-positive); pAM3, pET-21b(+); also called net-positive CTV mutant; source: E. coli C41(DE3), purified (25% saturated ammonium sulfate cut)
B10: FtsZ(DQAD) (purified) (natural protein, E. coli, UniProt P0A9A6 1-383, looked up)
chain: B1 chain with K383D
notes: FtsZ of E. coli with the CTV DQAD (net-negative) in place of KQAD; pKHH7, pET-21b(+); also called K380D; net-negative CTV mutant; source: E. coli C41(DE3), purified (20% ammonium sulfate cut)
B11: FtsZ(NRNKRG) (purified) (natural protein, E. coli | B. subtilis)
chain: B4 chain
notes: FtsZ of E. coli up to the CTV; the native CTV KQAD (380-383) is replaced by the next part; also called EcftsZCTVB; source: E. coli C41(DE3), purified (25% saturated ammonium sulfate cut)

The binders below were run against T1, GAL4 BD-ZapD fusion (assay: two-hybrid; GAL4 BD-ZapD with GAL4 AD-FtsZ fusions in diploid yeast grown in YNB (-Leu-Trp) at 30°C; beta-galactosidase activity in Miller units, mean of 10 independent trials). Settings: partners not purified.
Binder B1 has a β-galactosidase activity of 170 Miller units. For B2, the β-galactosidase activity was 115 Miller units. B3 was tested, and the β-galactosidase activity was 155 Miller units. B4 showed a β-galactosidase activity of 106 Miller units.

Biological target: the molecule itself
Assay: sedimentation of FtsZ polymers; FtsZ or CTV mutant 5 μM alone in 50 mM K-MOPS pH 6.5, 50 mM KCl, 2.5 mM MgCl2, 3 μM BSA, 1 mM GTP, room temperature; TLA100.2, 80,000 rpm, 10 min; percent of FtsZ in the pellet by SDS-PAGE
Settings: not given
B5: binds. B6: binds. B7: binds. B8: binds. B9: binds. B10: binds. B11: binds.
